From US20260055188A1 (SHENGHE CHINA BIOPHARMACEUTICAL, published 2026)

What was measured:
[1] = target: T1, Human-TNFR2-His (manufacturer: SINO, CAT: 10417-H08H) (human, UniProt P20333 23-257); test: ELISA: Human-TNFR2-His coated (0.3 µg/mL), antibody titrated, goat anti-human IgG Fc detection, OD450 (Example 2)
T1 construct: Bought protein; also called human TNFR2 protein; TNFR2 protein; not shown: His tag
T1 sequence (looked up): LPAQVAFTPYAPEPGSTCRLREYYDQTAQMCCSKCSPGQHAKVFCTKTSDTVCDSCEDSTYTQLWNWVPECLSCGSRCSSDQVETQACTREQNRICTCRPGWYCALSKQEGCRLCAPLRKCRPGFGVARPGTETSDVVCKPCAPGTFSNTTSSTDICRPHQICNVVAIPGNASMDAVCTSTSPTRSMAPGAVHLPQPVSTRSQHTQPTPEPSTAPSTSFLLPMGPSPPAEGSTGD
Description: Human-TNFR2-His (manufacturer: SINO, CAT: 10417-H08H, LOT: LC15NO0412) was diluted to 0.3 μg/mL with a coating solution (1×PBS, pH7.4), and coated into a 96-well ELISA plate at 100 μL/well overnight at 4° C. The coating solution was poured off. Each well was washed with 1×PBST at 300 μL, washed 4 times with a plate washer, and patted dry on a flat paper. It was blocked with 3% skim milk powder at 300 μL/well, and incubated at 37° C. for 1 h. The blocking solution was poured off, washed 4 times with a plate washer, and patted dry on a flat paper. Negative control and positive control were set up. […] The positive control and antibody were diluted to 10 μg/mL with 3% skim milk powder as the starting concentration, and then diluted by 3-fold gradient (11 gradients in total). A blank well was set up and only the diluent was added. It was incubated at 37° C. for 1 h at 100 μL/well. The liquid in the well was discarded, washed 4 times with a plate washer, and patted dry on a flat paper. Goat anti-human IgG Fc was diluted with 3% skim milk powder at 1:20000, and incubated at 37° C. for 1 h at 100 μL/well. It was washed 6 times with a plate washer, and patted dry on a flat paper. TMB color developing solution was added at 100 μL/well, and wrapped with aluminum foil. Color development was performed at 37° C. in the dark for 8 min. Termination solution 1M HCl was added to terminate the color development reaction at 100 μL/well. Readings were taken at 450 nm on an ELISA reader.

[2] = target: T2, Human-B7H3 His (manufacturer: Acro, CAT: TB73-H52E2) (human, UniProt Q5ZPR3-2 29-245); test: ELISA: Human-B7H3 His coated (0.3 µg/mL), antibody titrated, goat anti-human IgG Fc detection, OD450 (Example 3)
T2 construct: also called human B7H3 protein; B7H3 protein; not shown: His tag
T2 sequence (looked up): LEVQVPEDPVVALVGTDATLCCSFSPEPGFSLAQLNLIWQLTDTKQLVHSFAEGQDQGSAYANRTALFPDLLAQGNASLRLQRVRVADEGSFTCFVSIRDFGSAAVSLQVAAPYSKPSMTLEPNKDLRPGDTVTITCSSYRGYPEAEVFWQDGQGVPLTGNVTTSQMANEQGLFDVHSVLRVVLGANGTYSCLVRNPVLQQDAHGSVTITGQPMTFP
Description: Human-B7H3 His (manufacturer: Acro, CAT: TB73-H52E2, LOT: 2052-21AXF1-YS) was diluted to 0.3 μg/mL with a coating solution (1×PBS, pH7.4), and coated into a 96-well ELISA plate at 100 μL/well overnight at 4° C. The coating solution was poured off. Each well was washed with 1×PBST at 300 μL, washed 4 times with a plate washer, and patted dry on a flat paper. It was blocked with 3% skim milk powder at 300 μL/well, and incubated at 37° C. for 1 h. The blocking solution was poured off, washed 4 times with a plate washer, and patted dry on a flat paper. Negative control and positive control were set up. […] The variable region of the antibody sequence of the positive control consists of SEQ ID NO: 1 and SEQ ID NO: 5, with the constant region of human IgG1 added (SEQ ID NO: 85 and SEQ ID NO: 86). The positive control and antibody were diluted to 10 μg/mL with 3% skim milk powder as the starting concentration, and then diluted by 3-fold gradient (11 gradients in total). A blank well was set up and only the diluent was added. It was incubated at 37° C. for 1 h at 100 μL/well. The liquid in the well was discarded, washed 4 times with a plate washer, and patted dry on a flat paper. Goat anti-human IgG Fc was diluted with 3% skim milk powder at 1:20000, and incubated at 37° C. for 1 h at 100 μL/well. It was washed 6 times with a plate washer, and patted dry on a flat paper. TMB color developing solution was added at 100 μL/well, and wrapped with aluminum foil. Color development was performed at 37° C. in the dark for 8 min. Termination solution 1M HCl was added to terminate the color development reaction at 100 μL/well. Readings were taken at 450 nm on an ELISA reader.

[3] = target: T1, Human-TNFR2-His (manufacturer: SINO, …); test: BLI, antibody on AHC sensor, 100 nM human-TNFR2-His in solution
Description: The AHC sensor was soaked in 0.02% PBST (0.02% Tween 20, pH 7.4, 1×PBS) as a buffer for 600 s to remove the sucrose covering the sensor surface. The AHC sensor was equilibrated with 0.02% PBST (0.02% Tween 20, pH 7.4, 1×PBS) as a buffer for 60 s, the antibody in the sample plate was solidified for 300 s, and the secondary equilibration buffer was used for 180 s. 100 nM human-TNFR2-His (manufacturer: SINO, CAT: 10417-H08H, LOT: LC12SE2902) protein was bound to the antibody for 300 s and then dissociated for 600 s. After dissociation, 10 mM glycine (pH 2.0) was used as a regeneration buffer for 30 s. The sensor was regenerated with 10 mM glycine (pH 2.0).

[4] = target: T2, Human-B7H3 His (manufacturer: Acro, …); test: BLI, antibody on AHC sensor, 100 nM His-tagged protein (Acro TB73-H52E2) in solution
[5] = target: T1, Human-TNFR2-His (manufacturer: SINO, …); test: flow cytometry, bridging: CHOK1-18.2 cells (human Claudin18.2) + 150 nM antibody + human TNFR2-His, anti-His FITC detection
Description: Human TNFR2 protein (SINO, CAT: 10417-H08H) was sequentially added into 96-well plate with 100 μL/well, and after mixing, the 96-well plate was incubated at 4° C. for 1 h. Pre-cooled dilution was added and washed once, centrifuged (3000 rpm, 3 min), and the supernatant was discarded, and the cells were harvested. Fluorescent secondary antibody Anti-6X-his tag antibody (FITC) (manufacturer: abcam, Cat. No.: ab1206, Lot No.: GR3420599-3) was taken and diluted at the used concentration of 1:500. 100 μL of dilution was added to the blank control group, and 100 μL of fluorescent secondary antibody dilution was added to the rest of the sample groups respectively. After incubation for 0.5 h at room temperature and 4° C. protected from light, PBS was added to wash and centrifuged (3000 rpm, 3 min) twice. After discarding the supernatant, 80 μL of the dilution was added and resuspended.

B1: TB-A2 (bispecific antibody, human IgG4 S228P, kappa)
light: DIVMTQSPATLSVTPGDRVSLSCRASQSISDYLHWYQQKSHESPRLLIKYASQSISGIPSRFSGSGSGSDFTLSINSVEPEDVGVYYCQNGHSFPLTFGAGTKLELKRTVAAPSVFIFPPSDEQLKSGTASVVCLLNNFYPREAKVQWKVDNALQSGNSQESVTEQDSKDSTYSLSSTLTLSKADYEKHKVYACEVTHQGLSSPVTKSFNRGEC
heavy: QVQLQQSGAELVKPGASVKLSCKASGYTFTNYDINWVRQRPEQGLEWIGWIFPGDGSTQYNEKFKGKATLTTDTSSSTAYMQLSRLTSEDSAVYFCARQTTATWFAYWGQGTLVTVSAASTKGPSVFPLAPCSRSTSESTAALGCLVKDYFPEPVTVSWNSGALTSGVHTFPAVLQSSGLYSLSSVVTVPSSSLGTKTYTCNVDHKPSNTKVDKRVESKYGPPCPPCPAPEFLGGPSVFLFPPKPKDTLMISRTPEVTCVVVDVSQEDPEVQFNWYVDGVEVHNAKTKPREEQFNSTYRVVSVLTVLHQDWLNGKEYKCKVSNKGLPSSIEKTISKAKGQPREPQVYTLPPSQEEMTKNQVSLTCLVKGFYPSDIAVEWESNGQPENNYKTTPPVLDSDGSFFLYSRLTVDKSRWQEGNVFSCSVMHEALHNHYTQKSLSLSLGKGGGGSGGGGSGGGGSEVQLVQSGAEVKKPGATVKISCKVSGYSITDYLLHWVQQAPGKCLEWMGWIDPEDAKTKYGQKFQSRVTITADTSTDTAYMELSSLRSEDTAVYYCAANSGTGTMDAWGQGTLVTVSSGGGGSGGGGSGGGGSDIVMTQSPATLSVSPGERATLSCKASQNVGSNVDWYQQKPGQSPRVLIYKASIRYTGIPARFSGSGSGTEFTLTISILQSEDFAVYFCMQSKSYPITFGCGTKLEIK
notes: also called antibody TB-A2
With B1 the binding result [1] was “binds” and the “EC50 (read off the curve)” value [2] was roughly 0.7 nM.

B2: TB-A1 (bispecific antibody, human IgG1, kappa)
light: DIVMTQSPATLSVTPGDRVSLSCRASQSISDYLHWYQQKSHESPRLLIKYASQSISGIPSRFSGSGSGSDFTLSINSVEPEDVGVYYCQNGHSFPLTFGAGTKLELKRTVAAPSVFIFPPSDEQLKSGTASVVCLLNNFYPREAKVQWKVDNALQSGNSQESVTEQDSKDSTYSLSSTLTLSKADYEKHKVYACEVTHQGLSSPVTKSFNRGEC
heavy: not shown
notes: also called antibody TB-A1
Binder B2 has a Kd [3] of 0.234 nM, a koff [3] of 5.22e-05 s⁻¹ and a kon [3] of 223000 M⁻¹ s⁻¹. It also gave a Kd [4] of 22 nM, a koff [4] of 0.000894 s⁻¹ and a kon [4] of 40700 M⁻¹ s⁻¹.

B3: TB-B (bispecific antibody, human IgG1, kappa)
light: DIVMTQSPATLSVTPGDRVSLSCRASQSISDYLHWYQQKSHESPRLLIKYASQSISGIPSRFSGSGSGSDFTLSINSVEPEDVGVYYCQNGHSFPLTFGAGTKLELKRTVAAPSVFIFPPSDEQLKSGTASVVCLLNNFYPREAKVQWKVDNALQSGNSQESVTEQDSKDSTYSLSSTLTLSKADYEKHKVYACEVTHQGLSSPVTKSFNRGEC
heavy: not shown
notes: also called antibody TB-B
In the case of B3, the binding result [1] is reported as “binds” and the “EC50 (read off the curve)” value [2] is reported as roughly 0.2 µg/mL.

B4: TB-D1 (bispecific antibody, human IgG1, kappa)
light: DIVMTQSPATLSVTPGDRVSLSCRASQSISDYLHWYQQKSHESPRLLIKYASQSISGIPSRFSGSGSGSDFTLSINSVEPEDVGVYYCQNGHSFPLTFGAGTKLELKRTVAAPSVFIFPPSDEQLKSGTASVVCLLNNFYPREAKVQWKVDNALQSGNSQESVTEQDSKDSTYSLSSTLTLSKADYEKHKVYACEVTHQGLSSPVTKSFNRGEC
heavy: not shown
notes: also called antibody TB-D1
B4 gave a Kd [3] of 1.35 nM, a koff [3] of 0.000531 s⁻¹ and a kon [3] of 394000 M⁻¹ s⁻¹. It also gave a Kd [4] of 9.45 nM, a koff [4] of 0.000311 s⁻¹ and a kon [4] of 33000 M⁻¹ s⁻¹. For the same binder, the “EC50 (read off the curve)” value [2] was roughly 0.2 µg/mL.

B5: TB-E (bispecific antibody, human IgG1, kappa)
light: DIVMTQSPATLSVTPGDRVSLSCRASQSISDYLHWYQQKSHESPRLLIKYASQSISGIPSRFSGSGSGSDFTLSINSVEPEDVGVYYCQNGHSFPLTFGAGTKLELKRTVAAPSVFIFPPSDEQLKSGTASVVCLLNNFYPREAKVQWKVDNALQSGNSQESVTEQDSKDSTYSLSSTLTLSKADYEKHKVYACEVTHQGLSSPVTKSFNRGECGGGGSGGGGSEVQLVQSGAEVKKPGATVKISCKVSGYSITDYLLHWVQQAPGKCLEWMGWIDPEDAKTKYGQKFQSRVTITADTSTDTAYMELSSLRSEDTAVYYCAANSGTGTMDAWGQGTLVTVSSGGGGSGGGGSGGGGSDIVMTQSPATLSVSPGERATLSCKASQNVGSNVDWYQQKPGQSPRVLIYKASIRYTGIPARFSGSGSGTEFTLTISILQSEDFAVYFCMQSKSYPITFGCGTKLEIK
heavy: not shown
notes: also called antibody TB-E
B5: binds [1].

B6: TC-E2 (bispecific antibody, human IgG1, kappa)
light: EIVMTQSPPTLSLSPGERVTLSCKSSQSLLNSGNQKNYLTWYQQKPGQAPRLLIYWASTRESSIPARFSGSGSGTDFTLTISSLQPEDFAVYYCQNNYIYPLTFGGGTKLELKRTVAAPSVFIFPPSDEQLKSGTASVVCLLNNFYPREAKVQWKVDNALQSGNSQESVTEQDSKDSTYSLSSTLTLSKADYEKHKVYACEVTHQGLSSPVTKSFNRGECGGGGSGGGGSEVQLVQSGAEVKKPGATVKISCKVSGYSITDYLLHWVQQAPGKCLEWMGWIDPEDAKTKYGQKFQSRVTITADTSTDTAYMELSSLRSEDTAVYYCAANSGTGTMDAWGQGTLVTVSSGGGGSGGGGSGGGGSDIVMTQSPATLSVSPGERATLSCKASQNVGSNVDWYQQKPGQSPRVLIYKASIRYTGIPARFSGSGSGTEFTLTISILQSEDFAVYFCMQSKSYPITFGCGTKLEIK
heavy: not shown
In the case of B6, the “E1 Mean FITC-A” value [5] is reported as 260000.

B7: TC-F2 (bispecific antibody, human IgG1, kappa)
light: EVQLVQSGAEVKKPGATVKISCKVSGYSITDYLLHWVQQAPGKCLEWMGWIDPEDAKTKYGQKFQSRVTITADTSTDTAYMELSSLRSEDTAVYYCAANSGTGTMDAWGQGTLVTVSSGGGGSGGGGSGGGGSDIVMTQSPATLSVSPGERATLSCKASQNVGSNVDWYQQKPGQSPRVLIYKASIRYTGIPARFSGSGSGTEFTLTISILQSEDFAVYFCMQSKSYPITFGCGTKLEIKGGGGSGGGGSGGGGSEIVMTQSPPTLSLSPGERVTLSCKSSQSLLNSGNQKNYLTWYQQKPGQAPRLLIYWASTRESSIPARFSGSGSGTDFTLTISSLQPEDFAVYYCQNNYIYPLTFGGGTKLELKRTVAAPSVFIFPPSDEQLKSGTASVVCLLNNFYPREAKVQWKVDNALQSGNSQESVTEQDSKDSTYSLSSTLTLSKADYEKHKVYACEVTHQGLSSPVTKSFNRGEC
heavy: not shown
For B7, the “E1 Mean FITC-A” value [5] was 248000.

B8: TC-A2 (bispecific antibody, human IgG1, kappa)
light: EIVMTQSPPTLSLSPGERVTLSCKSSQSLLNSGNQKNYLTWYQQKPGQAPRLLIYWASTRESSIPARFSGSGSGTDFTLTISSLQPEDFAVYYCQNNYIYPLTFGGGTKLELKRTVAAPSVFIFPPSDEQLKSGTASVVCLLNNFYPREAKVQWKVDNALQSGNSQESVTEQDSKDSTYSLSSTLTLSKADYEKHKVYACEVTHQGLSSPVTKSFNRGEC
heavy: not shown
In the case of B8, the “E1 Mean FITC-A” value [5] is reported as 217000.
